Article PMC4707092 (Journal of immunology (Baltimore, Md. : 1950), 2015)
Each block holds one binder with its values, some of them ahead of it.

Target: C3b (UniProt P01024 749-1663, most molecules attached to the chip surface via the thioester group)
Assay: SPR

- Kd: 27 nM
B1: midiFH (other)
chain: AGEDCNELPPRRNTEILTGSWSDQTYPEGTQAIYKCRPGYRSLGNVIMVCRKGEWVALNPLRKCQKRPCGHPGDTPFGTFTLTGGNVFEYGVKAVYTCNEGYQLLGEINYRECDTDGWTNDIPICEVVKCLPVTAPENGKIVSSAMEPDREYHFGQAVRFVCNSGYKIEGDEEMHCSDDGFWSKEKPKCVEISCKSPDVINGSPISQKIIYKENERFQYKCNMGYEYSERGDAVCTESGWRPLPSCEEGKCGPPPPIDNGDITSFPLSVYAPASSVEYQCQNLYQLEGNKRITCRNGQWSEPPKCLHPCVISREIMENYNIALRWTAKQKLYSRTGESVEFVCKRGYRLSSRSHTLRTTCWDGKLEYPTCAKREDCNELPPRRNTEILTGSWSDQTYPEGTQAIYKCRPGYRSLGNVIMVCRKGEWVALNPLRKCQKRPCGHPGDTPFGTFTLTGGNVFEYGVKAVYTCNEGYQLLGEINYRECDTDGWTNDIPICEVVKCLPVTAPENGKIVSSAMEPDREYHFGQAVRFVCNSGYKIEGDEEMHCSDDGFWSKEKPKCVEISCKSPDVINGSPISQKIIYKENERFQYKCNMGYEYSERGDAVCTESGWRPLPSCEEGKCGPPPPIDNGDITSFPLSVYAPASSVEYQCQNLYQLEGNKRITCRNGQWSEPPKCLHPCVISREIMENYNIALRWTAKQKLYSRTGESVEFVCKRGYRLSSRSHTLRTTCWDGKLEYPTCAKR

- Kd: 709 nM
B2: miniFH (other)
chain: AGEDCNELPPRRNTEILTGSWSDQTYPEGTQAIYKCRPGYRSLGNVIMVCRKGEWVALNPLRKCQKRPCGHPGDTPFGTFTLTGGNVFEYGVKAVYTCNEGYQLLGEINYRECDTDGWTNDIPICEVVKCLPVTAPENGKIVSSAMEPDREYHFGQAVRFVCNSGYKIEGDEEMHCSDDGFWSKEKPKCVEISCKSPDVINGSPISQKIIYKENERFQYKCNMGYEYSERGDAVCTESGWRPLPSCEEGKCGPPPPIDNGDITSFPLSVYAPASSVEYQCQNLYQLEGNKRITCRNGQWSEPPKCLHPCVISREIMENYNIALRWTAKQKLYSRTGESVEFVCKRGYRLSSRSHTLRTTCWDGKLEYPTCAKR
